# Assay results reported in the supplement of paper PMC11316812.
# ± gives the standard deviation of the averaged measurements.
# Assays:
# [1] = system: hTERT-HMEC; assay: percentage of EdU-negative (G0-arrested) nuclei per well, 72 h; higher = more G0 arrest; details: reference: sequence is the full UniProt precursor, the tested protein was the secreted form or ectodomain
# [2] = system: MCF7; assay: as above; details: reference: sequence is the full UniProt precursor, the tested protein was the secreted form or ectodomain
# [3] = protein concentration 0.0131429 µM
# [4] = protein concentration 0.131429 µM
# [5] = protein concentration 0.02859 µM
# [6] = protein concentration 0.2859 µM
# [7] = protein concentration 0.0257143 µM
# [8] = protein concentration 0.257143 µM
# [9] = protein concentration 0.0225 µM
# [10] = protein concentration 0.02325 µM
# [11] = protein concentration 0.2325 µM
# [12] = protein concentration 0.01375 µM
# [13] = protein concentration 0.1375 µM
# 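Note: secreted proteins added to cultured cells, EdU pulse at the end, nuclei found by Hoechst imaging, EdU status from nuclear versus surrounding ring intensity ratio, PBS as neutral control.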
Sequence,"percentage of EdU-negative [1, 9] [%]",percentage of EdU-negative ([1]; protein concentration 0.225 µM) [%],"percentage of EdU-negative [2, 9] [%]",percentage of EdU-negative ([2]; protein concentration 0.225 µM) [%],further results
MAPPLRPLARLRPPGMLLRALLLLLLLSPLPGVWCFSELSFVKEPQDVTVTRKDPVVLDCQAHGEVPIKVTWLKNGAKMSENKRIEVLSNGSLYISEVEGRRGEQSDEGFYQCLAMNKYGAILSQKAHLALSTISAFEVQPISTEVHEGGVARFACKISSHPPAVITWEFNRTTLPMTMDRITALPTGVLQIYDVSQRDSGNYRCIAATVAHRRKSMEASLTVIPAKESKSFHTPTIIAGPQNITTSLHQTVVLECMATGNPKPIISWSRLDHKSIDVFNTRVLGNGNLMISDVRLQHAGVYVCRATTPGTRNFTVAMATLTVLAPPSFVEWPESLTRPRAGTARFVCQAEGIPSPKMSWLKNGRKIHSNGRIKMYNSKLVINQIIPEDDAIYQCMAENSQGSILSRARLTVVMSEDRPSAPYNVHAETMSSSAILLAWERPLYNSDKVIAYSVHYMKAEGLNNEEYQVVIGNDTTHYIIDDLEPASNYTFYIVAYMPMGASQMSDHVTQNTLEDVPLRPPEISLTSRSPTDILISWLPIPAKYRRGQVVLYRLSFRLSTENSIQVLELPGTTHEYLLEGLKPDSVYLVRITAATRVGLGESSVWTSHRTPKATSVKAPKSPELHLEPLNCTTISVRWQQDVEDTAAIQGYKLYYKEEGQQENGPIFLDTKDLLYTLSGLDPRRKYHVRLLAYNNIDDGYQADQTVSTPGCVSVRDRMVPPPPPPHHLYAKANTSSSIFLHWRRPAFTAAQIINYTIRCNPVGLQNASLVLYLQTSETHMLVQGLEPNTKYEFAVRLHVDQLSSPWSPVVYHSTLPEAPAGPPVGVKVTLIEDDTALVSWKPPDGPETVVTRYTILYASRKAWIAGEWQVLHREGAITMALLENLVAGNVYIVKISASNEVGEGPFSNSVELAVLPKETSESNQRPKRLDSADAKVYSGYYHLDQKSMTGIAVGVGIALTCILICVLILIYRSKARKSSASKTAQNGTQQLPRTSASLASGNEVGKNLEGAVGNEESLMPMIMPNSFIDAKGGTDLIINSYGPIIKNNSKKKWFFFQDSKKIQVEQPQRRFTPAVCFYQPGTTVLISDEDSPSSPGQTTSFSRPFGVAADTEHSANSEGSHETGDSGRFSHESNDEIHLSSVISTTPPNL [Q2VWP7],,,,,"percentage of EdU-negative [1, 3]: 4.73 ± 0.2%; percentage of EdU-negative [1, 4]: 5.16 ± 0.39%; percentage of EdU-negative [2, 3]: 25.8 ± 0.61%; percentage of EdU-negative [2, 4]: 25.2 ± 1.5%"
MKSVLLLTTLLVPAHLVAAWSNNYAVDCPQHCDSSECKSSPRCKRTVLDDCGCCRVCAAGRGETCYRTVSGMDGMKCGPGLRCQPSNGEDPFGEEFGICKDCPYGTFGMDCRETCNCQSGICDRGTGKCLKFPFFQYSVTKSSNRFVSLTEHDMASGDGNIVREEVVKENAAGSPVMRKWLNPR [Q9NQ30],,,,,"percentage of EdU-negative [1, 5]: 4.84 ± 1.4%; percentage of EdU-negative [1, 6]: 5.91 ± 0.64%; percentage of EdU-negative [2, 5]: 24.2 ± 1%; percentage of EdU-negative [2, 6]: 25.25 ± 0.057%"
MYRHGISSQRSWPLWTTIFIFLGVAAILGVTIGLLVHFLAVEKTYYYQGDFHISGVTYNDNCENAASQASTNLSKDIETKMLNAFQNSSIYKEYVKSEVIKLLPNANGSNVQLQLKFKFPPAEGVSMRTKIKAKLHQMLKNNMASWNAVPASIKLMEISKAASEMLTNNCCGRQVANSIITGNKIVNGKSSLEGAWPWQASMQWKGRHYCGASLISSRWLLSAAHCFAKKNNSKDWTVNFGIVVNKPYMTRKVQNIIFHENYSSPGLHDDIALVQLAEEVSFTEYIRKICLPEAKMKLSENDNVVVTGWGTLYMNGSFPVILQEDFLKIIDNKICNASYAYSGFVTDTMLCAGFMSGEADACQNDSGGPLAYPDSRNIWHLVGIVSWGDGCGKKNKPGVYTRVTSYRNWITSKTGL [Q86T26],,,,,"percentage of EdU-negative [1, 7]: 5.22 ± 1.8%; percentage of EdU-negative [1, 8]: 5.69 ± 1%; percentage of EdU-negative [2, 7]: 23.6 ± 1.4%; percentage of EdU-negative [2, 8]: 25.2 ± 1.9%"
MLGPCMLLLLLLLGLRLQLSLGIIPVEEENPDFWNREAAEALGAAKKLQPAQTAAKNLIIFLGDGMGVSTVTAARILKGQKKDKLGPEIPLAMDRFPYVALSKTYNVDKHVPDSGATATAYLCGVKGNFQTIGLSAAARFNQCNTTRGNEVISVMNRAKKAGKSVGVVTTTRVQHASPAGTYAHTVNRNWYSDADVPASARQEGCQDIATQLISNMDIDVILGGGRKYMFRMGTPDPEYPDDYSQGGTRLDGKNLVQEWLAKRQGARYVWNRTELMQASLDPSVTHLMGLFEPGDMKYEIHRDSTLDPSLMEMTEAALRLLSRNPRGFFLFVEGGRIDHGHHESRAYRALTETIMFDDAIERAGQLTSEEDTLSLVTADHSHVFSFGGYPLRGSSIFGLAPGKARDRKAYTVLLYGNGPGYVLKDGARPDVTESESGSPEYRQQSAVPLDEETHAGEDVAVFARGPQAHLVHGVQEQTFIAHVMAFAACLEPYTACDLAPPAGTTDAAHPGRSVVPALLPLLAGTLLLLETATAP,5.09 ± 0.15,5.14 ± 0.97,27.28 ± 0.045,29.68 ± 0.2,
MQAPGRGPLGLRLMMPGRRGALREPGGCGSCLGVALALLLLLLPACCPVRAQNDTEPIVLEGKCLVVCDSSPSADGAVTSSLGISVRSGSAKVAFSATRSTNHEPSEMSNRTMTIYFDQVLVNIGNHFDLASSIFVAPRKGIYSFSFHVVKVYNRQTIQVSLMQNGYPVISAFAGDQDVTREAASNGVLLLMEREDKVHLKLERGNLMGGWKYSTFSGFLVFPL [Q8IUK8],4.67 ± 0.45,5.29 ± 0.93,26.91 ± 0.25,26.76 ± 0.11,
MAGPWTFTLLCGLLAATLIQATLSPTAVLILGPKVIKEKLTQELKDHNATSILQQLPLLSAMREKPAGGIPVLGSLVNTVLKHIIWLKVITANILQLQVKPSANDQELLVKIPLDMVAGFNTPLVKTIVEFHMTTEAQATIRMDTSASGPTRLVLSDCATSHGSLRIQLLHKLSFLVNALAKQVMNLLVPSLPNLVKNQLCPVIEASFNGMYADLLQLVKVPISLSIDRLEFDLLYPAIKGDTIQLYLGAKLLDSQGKVTKWFNNSAASLTMPTLDNIPFSLIVSQDVVKAAVAAVLSPEEFMVLLDSVLPESAHRLKSSIGLINEKAADKLGSTQIVKILTQDTPEFFIDQGHAKVAQLIVLEVFPSSEALRPLFTLGIEASSEAQFYTKGDQLILNLNNISSDRIQLMNSGIGWFQPDVLKNIITEIIHSILLPNQNGKLRSGVPVSLVKALGFEAAESSLTKDALVLTPASLWKPSSPVSQ [Q8TDL5],5.17 ± 0.22,8.84 ± 0.099,25.5 ± 0.91,30.5 ± 0.65,
MSLMVVSMVCVGFFLLQGAWPHEGVHRKPSLLAHPGPLVKSEETVILQCWSDVRFQHFLLHREGKFKDTLHLIGEHHDGVSKANFSIGPMMQDLAGTYRCYGSVTHSPYQLSAPSDPLDIVITGLYEKPSLSAQPGPTVLAGESVTLSCSSRSSYDMYHLSREGEAHERRFSAGPKVNGTFQADFPLGPATHGGTYRCFGSFRDSPYEWSNSSDPLLVSVTGNPSNSWPSPTEPSSETGNPRHLHVLIGTSVVIILFILLLFFLLHRWCCNKKNAVVMDQEPAGNRTVNREDSDEQDPQEVTYAQLNHCVFTQRKITRPSQRPKTPPTDIIVYTELPNAEP,5.55 ± 0.17,11.3 ± 1.1,22.6 ± 0.43,26.6 ± 2.4,
MALRVVRSVRALLCTLRAVPSPAAPCPPRPWQLGVGAVRTLRTGPALLSVRKFTEKHEWVTTENGIGTVGISNFAQEALGDVVYCSLPEVGTKLNKQDEFGALESVKAASELYSPLSGEVTEINEALAENPGLVNKSCYEDGWLIKMTLSNPSELDELMSEEAYEKYIKSIEE,4.5 ± 0.0069,10.4 ± 2.3,25.5 ± 2.2,26.3 ± 3.4,
MDLLQFLAFLFVLLLSGMGATGTLRTSLDPSLEIYKKMFEVKRREQLLALKNLAQLNDIHQQYKILDVMLKGLFKVLEDSRTVLTAADVLPDGPFPQDEKLKDAFSHVVENTAFFGDVVLRFPRIVHYYFDHNSNWNLLIRWGISFCNQTGVFNQGPHSPILSLMAQELGISEKDSNFQNPFKIDRTEFIPSTDPFQKALREEEKRRKKEEKRKEIRKGPRISRSQSEL [Q9H6E4],,,,,"percentage of EdU-negative [1, 10]: 5.552 ± 0.014%; percentage of EdU-negative [1, 11]: 6.34 ± 0.88%; percentage of EdU-negative [2, 10]: 27.1 ± 0.79%; percentage of EdU-negative [2, 11]: 26.7 ± 0.95%"
MSGAPTAGAALMLCAATAVLLSAQGGPVQSKSPRFASWDEMNVLAHGLLQLGQGLREHAERTRSQLSALERRLSACGSACQGTEGSTDLPLAPESRVDPEVLHSLQTQLKAQNSRIQQLFHKVAQQQRHLEKQHLRIQHLQSQFGLLDHKHLDHEVAKPARRKRLPEMAQPVDPAHNVSRLHRLPRDCQELFQVGERQSGLFEIQPQGSPPFLVNCKMTSDGGWTVIQRRHDGSVDFNRPWEAYKAGFGDPHGEFWLGLEKVHSITGDRNSRLAVQLRDWDGNAELLQFSVHLGGEDTAYSLQLTAPVAGQLGATTVPPSGLSVPFSTWDQDHDLRRDKNCAKSLSGGWWFGTCSHSNLNGQYFRSIPQQRQKLKKGIFWKTWRGRYYPLQATTMLIQPMAAEAAS [Q9BY76],,,,,"percentage of EdU-negative [1, 12]: 5.28 ± 0.74%; percentage of EdU-negative [1, 13]: 6.14 ± 0.59%; percentage of EdU-negative [2, 12]: 23.9 ± 1.8%; percentage of EdU-negative [2, 13]: 27.4 ± 1.9%"
MAAWSPAAAAPLLRGIRGLPLHHRMFATQTEGELRVTQILKEKFPRATAIKVTDISGGCGAMYEIKIESEEFKEKRTVQQHQMVNQALKEEIKEMHGLRIFTSVPKR [Q53S33],4.56 ± 0.98,5.94 ± 0.72,26.66 ± 0.12,26.7 ± 1.7,
